One experiment has as its target T1, DENND10 (recombinant) (human, UniProt Q8TCE6 1-357).
T1 construct: DENND10/FAM45A, human; also called FAM45A; recombinant DENND10; source: E. coli BL21 (DE3) (pGEX6P-1), purified (glutathione resin, gel filtration)
Put plainly: ITC; 50 μM DENND10 titrated into 10 μM wild type or mutant CCDC22(325–485)+CCDC93(310–488) complex, 100 mM Tris pH 7.4, 300 mM NaCl, 25°C, single site model. Conditions: both partners purified. Background: In ITC the heat of successive injections is recorded.

The next experiment addresses VPS29 (recombinant) (human, UniProt Q9UBQ0 1-182). Kind of experiment: ITC; VPS35L peptides at 600 μM titrated into 20 μM VPS29, 100 mM Tris pH 7.4, 300 mM NaCl, 25°C, single site model. Particulars: both partners purified.

Several values for one entry are separate records, joined by “and”; a condition that tells them apart may be missing. Equal entries are not always repeated.

T1 sequence (Q8TCE6 whole entry): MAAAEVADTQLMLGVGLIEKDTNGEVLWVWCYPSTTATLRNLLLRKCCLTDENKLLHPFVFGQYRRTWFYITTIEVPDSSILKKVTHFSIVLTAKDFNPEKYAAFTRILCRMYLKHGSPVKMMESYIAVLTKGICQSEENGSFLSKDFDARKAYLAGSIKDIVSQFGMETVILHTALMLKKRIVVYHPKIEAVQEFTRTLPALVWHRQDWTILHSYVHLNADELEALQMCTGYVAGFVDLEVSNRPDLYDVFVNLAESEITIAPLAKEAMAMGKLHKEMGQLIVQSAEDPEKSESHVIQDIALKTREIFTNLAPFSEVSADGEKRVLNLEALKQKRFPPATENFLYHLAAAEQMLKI

B1: CC1-CC2 complex (CCDC22(325–485) + CCDC93(310–488)), wild type (complex, human)
chain 1: VTWAAQEQELESLREQLEGVNRSIEEVEADMKTLGVSFVQAESECRHSKLSTAEREQALRLKSRAVELLPDGTANLAKLQLVVENSAQRVIHLAGQWEKHRVPLLAEYRHLRKLQDCRELESSRRLAEIQELHQSVRAAAEEARRKEEVYKQLMSELETLP
chain 2: GTSQLHRRKVISLNKQIAQKTKHLEELRASHTSLQARYNEAKKTLTELKTYSEKLDKEQAALEKIESKADPSILQNLRALVAMNENLKSQEQEFKAHCREEMTRLQQEIENLKAERAPRGDEKTLSSGEPPGTLTSAMTHDEDLDRRYNMEKEKLYKIRLLQARRNREIAILHRKIDEV
notes: CCDC22, human, CC1 and CC2 coiled-coil regions; CCDC93, human, CC1 and CC2 coiled-coil regions; also called CCDC22-CCDC93; source: E. coli BL21 (DE3), co-expressed (pRSF-duet), purified (Talon, gel filtration)
The term Kd denotes the constant that tells how readily two partners part at equilibrium. As to B1, the Kd in the experiment with DENND10 (recombinant) was 34 nM and 28 nM.

B2: CC1-CC2 complex, CCDC22 (V360E) (complex, human)
chain 1: VTWAAQEQELESLREQLEGVNRSIEEVEADMKTLGESFVQAESECRHSKLSTAEREQALRLKSRAVELLPDGTANLAKLQLVVENSAQRVIHLAGQWEKHRVPLLAEYRHLRKLQDCRELESSRRLAEIQELHQSVRAAAEEARRKEEVYKQLMSELETLP
chain 2: GTSQLHRRKVISLNKQIAQKTKHLEELRASHTSLQARYNEAKKTLTELKTYSEKLDKEQAALEKIESKADPSILQNLRALVAMNENLKSQEQEFKAHCREEMTRLQQEIENLKAERAPRGDEKTLSSGEPPGTLTSAMTHDEDLDRRYNMEKEKLYKIRLLQARRNREIAILHRKIDEV
notes: CCDC22, human, CC1 and CC2 coiled-coil regions; CCDC93, human, CC1 and CC2 coiled-coil regions; source: E. coli BL21 (DE3), co-expressed (pRSF-duet), purified (Talon, gel filtration)
With B2, the Kd with DENND10 (recombinant) came to 47.9 ± 3.5 nM.

B3: CC1-CC2 complex, CCDC93 (M392R) (complex, human)
chain 1: VTWAAQEQELESLREQLEGVNRSIEEVEADMKTLGVSFVQAESECRHSKLSTAEREQALRLKSRAVELLPDGTANLAKLQLVVENSAQRVIHLAGQWEKHRVPLLAEYRHLRKLQDCRELESSRRLAEIQELHQSVRAAAEEARRKEEVYKQLMSELETLP
chain 2: GTSQLHRRKVISLNKQIAQKTKHLEELRASHTSLQARYNEAKKTLTELKTYSEKLDKEQAALEKIESKADPSILQNLRALVARNENLKSQEQEFKAHCREEMTRLQQEIENLKAERAPRGDEKTLSSGEPPGTLTSAMTHDEDLDRRYNMEKEKLYKIRLLQARRNREIAILHRKIDEV
notes: as for B2
Turning to B3, the Kd with DENND10 (recombinant) turned out to be 89.1 ± 10 nM.

B4: VPS35L (16-38) peptide (peptide)
peptide: EFASCRLEAVPLEFGDYHPLKPI
notes: VPS35L, human, residues 16-38; also called VPS35L peptide (Glu16-Ile38); source: synthetic peptide (Genscript)
For the molecule B4, the Kd with VPS29 (recombinant) worked out at 1870 nM.

The values are drawn from PMC10187114, “Structure of the endosomal Commander complex linked to Ritscher-Schinzel syndrome” (Cell, 2023).
